Laboratory results reported in CN113388029A (WUHAN INST VIROLOGY CAS, dated 2021).

Assays:
[1] = target: T1, 新型冠状病毒囊膜蛋白受体结合域 WH-RBD-TFc (SARS-CoV-2 S蛋白 RBD 319-541 - 凝血酶位点 - 人源IgG1 Fc) (SARS-CoV-2; human, UniProt P0DTC2 319-541); assay: ELISA, WH-RBD-TFc coated at 4 μg/mL, Fab titrated, detected with HRP anti-FLAG antibody
[2] = target: T1, 新型冠状病毒囊膜蛋白受体结合域 WH-RBD-TFc (SARS-CoV-2 …); assay: ELISA, WH-RBD-TFc coated at 4 μg/mL, IgG titrated, detected with HRP goat anti-human IgG (Fab)
[3] = target: T1, 新型冠状病毒囊膜蛋白受体结合域 WH-RBD-TFc (SARS-CoV-2 …); assay: BLI, biotinylated WH-RBD-TFc immobilised (40 μg/ml), IgG titrated in solution (both partners bivalent)

Binder | EC50 [1] [nM] | EC50 [2] [nM] | Kd [3] [nM]
Fab-F1-A3 (Fab, V domains shown, also called 抗体Fab F1-A3) VH: QVQLVESGGGLVQPGGSLRLSCAASGFTVSSNYMSWVRQAPGKGLEWVSVIYSGGSTYYADSVKGRFTISRDNSKNTLYLQMNSLRAEDTAVYYCARGDGSDDYYYGMDVWGQGTTVTVSS VL: QSVVTQPPSVSGAQGQRVFISCTGNGANIGMGYDVHWYQQLPGRAPKLLIFGNTNRPSGVPDRFSASRSGTSASLAITGLQTADEADYYCQSYDGNLRASVFGGGTKLTVLG | 4 | – | –
IgG-F1-A3 (antibody, V domains shown) VH: QVQLVESGGGLVQPGGSLRLSCAASGFTVSSNYMSWVRQAPGKGLEWVSVIYSGGSTYYADSVKGRFTISRDNSKNTLYLQMNSLRAEDTAVYYCARGDGSDDYYYGMDVWGQGTTVTVSS VL: QSVVTQPPSVSGAQGQRVFISCTGNGANIGMGYDVHWYQQLPGRAPKLLIFGNTNRPSGVPDRFSASRSGTSASLAITGLQTADEADYYCQSYDGNLRASVFGGGTKLTVLG | – | ~0.78 | 0.013
